Data published in patent US11686724B2, “Compositions comprising gamma 9 delta 2 T-cell receptors and methods of use thereof to treat cancer” (Gadeta B.V., priority 2012, dated 2023).

What was measured:
Daudi-luciferase = Daudi-luciferase xenograft in Rag2−/−γc−/− mice, adoptive transfer of engineered T-cells; format: in vivo
Description: (§1) To induce tumour xenografts, sublethal total body irradiated (2 Gy), 11-17 weeks old RAG-2−/−/yc−/−-BALB/C mice were injected i.v. with 0.5×10^6 Daudi-Luc cells (a kind gift from Genmab Utrecht, The Netherlands) or 5×10^6 RPM I8226/S-Luc cells (Anton Martens, Utrecht, The Netherlands) together with 10^7 γ9δ2TCR+ transduced T-cells. The RAG−2^−/^−yc^−/−-BALB/C mice were originally obtained from AMCAS b.v. (Amsterdam, the Netherlands). Mice were bred and housed in the specific pathogen-free (SPF) breeding unit of the Central Animal Facility of the University of Utrecht. All animal experiments were conducted according to Institutional Guidelines after acquiring permission from the local Ethical Committee for Animal Experimentation, and in accordance with current Dutch laws on Animal Experimentation. All mice developed tumours, mainly growing in the bone marrow visualized in vivo once a week by Biospace bioluminescent imaging. […] Bioluminescence images were acquired using a third generation cooled GaAs intensified charge-coupled device camera, controlled by the Photo Vision software and analyzed with M^3Vision software (all from Photon Imager; Biospace Laboratory). […] Bioluminescence images were acquired and analyzed with M3Vision software (Photon Imager, Biospace Laboratory). […]

[1] = Allo-reactivity of γ9δ2TCR-transduced T-cells; format: cell-based
RPMI8226/S-luciferase = RPMI8226/S-luciferase xenograft in Rag2−/−γc−/− mice, adoptive transfer of engineered T-cells; format: in vivo; conditions: day 35, n=7, one i.v. injection of 10^7 T-cells
Description: as §1

Daudi [2] = assay: IFNγ ELISA of γ9δ2TCR-transduced T-cells against Daudi in the presence of pamidronate; format: cell-based; set-up: IFNγ secretion (max.): unit not given here; conditions: CD4+ transduced T-cells, pamidronate titration; for IFNγ secretion (max.): FIG. 1B
Description: (§2) 51Chromium-release assay for cell-mediated cytotoxicity was previously described. Target cells were labeled overnight with 100 μCu 51Cr (150 μCu for primary cells) and incubated for 5 h with transduced T-cells in five effector-to-target ratios (E:T) between 30:1 and 0.3:1. Fold change was calculated when compared to reactivity of engineered T-cells expressing unmutated γ9δ2TCR. IFN-γ ELISpot was performed using anti-hulFN-γmAb1-D1K (I) and mAb7-B6-1 (II) (Mabtech-Hamburg, Germany) following the manufacturer's recommended procedure. Target and effector cells (E:T 3:1) were incubated for 24 h in the presence of pamidronate (Calbiochem, Germany) where indicated. IFNγ ELISA was performed using ELISA-ready-go! Kit (eBioscience) following manufacturer's instructions. Effector and target cells (E:T 1:1) were incubated for 24 h in the presence of pamidronate as indicated. Where specified, fold change was calculated when compared to reactivity of engineered T-cells expressing unmutated γ9δ2TCR.
IFN-γELISA was performed using ELISA-ready-go! Kit (eBioscience) following manufacturers' instructions. Effector and target cells (E:T 1:1) were incubated for 24 h in the presence of pamidronate as indicated. Where specified, fold change was calculated based on IFN-γ secretion γ9-G115wt/6δ-G115wt transduced T-cells normalized to 1; for the side by side experiments based on γ9-3wt/δ9-3wt, γ9-5wt/69-5wt or γ9-G115wt/δ9-G115wt normalized to 1.

[3] = system: healthy CD34+ progenitor cells; assay: IFNγ ELISpot against healthy CD34+ progenitor cells; format: cell-based; conditions: FIG. 5C
Description: as §2
Mabtech (Hamburg, Germany) following manufactures' recommended procedure (Besold et al., 2007). In all assays target and effector cells (E:T 3:1) were incubated for 24 h in the presence of pamidronate (Calbiochem, Germany) where indicated. […]

Daudi [4] = assay: 51Cr-release assay of γ9δ2TCR-transduced T-cells against Daudi; format: cell-based; conditions: FIG. 1A, E:T 3:1, 5 h
Description: as §2
^51Chromium-release assay for cell-mediated cytotoxicity was previously described (Kuball et al., 2004). […] After 4-6 h ^51Cr-release was measured in the supernatant. Fold change was calculated based on ^51Cr-release of γ9-G115wt/69-G115wt transduced T-cells normalized to 1; for side by side experiments based on γ9-3wt/δ9-3wt, γ9-5wt/δ9-5wt or γ9-G115wt/69-G115wt normalized to 1.

B1: γ9-G115/δ2-G115: reference γ9δ2TCR of clone G115, γ9 chain SEQ ID NO.1 and δ2 chain SEQ ID NO.2, control (protein, listed as Homo sapiens)
chain 1: MVSLLHASTLAVLGALCVYGAGHLEQPQISSTKTLSKTARLECVVSGITISATSVYWYRERPGEVIQFLVSISYDGTVRKESGIPSGKFEVDRIPETSTSTLTIHNVEKQDIATYYCALWEAQQELGKKIKVFGPGTKLIITDKQLDADVSPKPTIFLPSIAETKLQKAGTYLCLLEKFFPDVIKIHWEEKKSNTILGSQEGNTMKTNDTYMKFSWLTVPEKSLDKEHRCIVRHENNKNGVDQEIIFPPIKTDVITMDPKDNCSKDANDTLLLQLTNTSAYYMYLLLLLKSVVYFAIITCCLLRRTAFCCNGEKS
chain 2: MERISSLIHLSLFWAGVMSAIELVPEHQTVPVSIGVPATLRCSMKGEAIGNYYINWYRKTQGNTMTFIYREKDIYGPGFKDNFQGDIDIAKNLAVLKILAPSERDEGSYYCACDTLGMGGEYTDKLIFGKGTRVTVEPRSQPHTKPSVFVMKNGTNVACLVKEFYPKDIRINLVSSKKITEFDPAIVISPSGKYNAVKLGKYEDSNSVTCSVQHDNKTVHSTDFEVKTDSTDHVKPKETENTKQPSKSCHKPKAIVHTEKVNMMSLTVLGLRMLFAKTVAVNFLLTAKLFFL
With B1 the “tumour outgrowth by bioluminescence imaging” value (Daudi-luciferase; Daudi, day 42, n=4, one i.v. injection of 10^7 T-cells) was 180.000 counts/min, the “protection against tumour growth (BLI)” value (Daudi-luciferase; one T-cell infusion, FIGS. 6A and 6B (Daudi and RPMI8226/S)) was “loss of protection” and the “allo-reactivity compared to mock-transduced cells” value [1] was “nearly abolished”. The “tumour outgrowth by bioluminescence imaging” value (RPMI8226/S-luciferase) was 210.000 counts/min, the “IFNγ secretion (max.)” value (Daudi [2]) was 800 and the “IFNγ production (max.)” value (Daudi [2]; FIG. 1D) was 800 pg/mL. For the same molecule, the “recognition of CD34+ progenitor cells” value [3] was “not recognized”.

B2: γ9-cl3/δ2-cl3: wildtype γ9δ2TCR of T-cell clone 3 (SEQ ID 8 and 10) (protein, listed as Homo sapiens)
chain 1: MVSLLHASTLAVLGALCVYGAGHLEQPQISSTKTLSKTARLECVVSGITISATSVYWYRERPGEVIQFLVSISYDGTVRKESGIPSGKFEVDRIPETSTSTLTIHNVEKQDIATYYCALWEEELGKKIKVFGPGTKLIITDKQLDADVSPKPTIFLPSIAETKLQKAGTYLCLLEKFFPDVIKIHWEEKKSNTILGSQEGNTMKTNDTYMKFSWLTVPEKSLDKEHRCIVRHENNKNGVDQEIIFPPIKTDVITMDPKDNCSKDANDTLLLQLTNTSAYYMYLLLLLKSVVYFAIITCCLLRRTAFCCNGEKS
chain 2: MERISSLIHLSLFWAGVMSAIELVPEHQTVPVSIGVPATLRCSMKGEAIGNYYINWYRKTQGNTMTFIYREKDIYGPGFKDNFQGDIDIAKNLAVLKILAPSERDEGSYYCACDLLGYTDKLIFGKGTRVTVEPRSQPHTKPSVFVMKNGTNVACLVKEFYPKDIRINLVSSKKITEFDPAIVISPSGKYNAVKLGKYEDSNSVTCSVQHDNKTVHSTDFEVKTDSTDHVKPKETENTKQPSKSCHKPKAIVHTEKVNMMSLTVLGLRMLFAKTVAVNFLLTAKLFFL
In the case of B2, the “reduced ability to lyse tumour cells vs control γ9-G115wt/δ2-G115wt” value (Daudi [4]) is reported as 50% and the “IFNγ secretion (max.)” value (Daudi [2]) is reported as 600.
